From publication PMC12067460, “Probing the ferredoxin:hydrogenase electron transfer complex by infrared difference spectroscopy†” (Chemical Science, 2025)
One block for each molecule: values may come before it. Where no end group is shown, it is not given here.

Assays:
[1] = biological target: Y3pCNF-CpFd, ferredoxin CpFd from Clostridium pasteurianum with tyrosine Y3 replaced by 4-cyano-L-phenylalanine (holo) (Clostridium pasteurianum) (UniProt P00195); assay: MST; anaerobic; reducing conditions (dithionite); ferredoxin labelled with Alexa Fluor 647
[2] = biological target: clostridial 2[4Fe-4S] ferredoxin CpFd from Clostridium pasteurianum, wild type (holo) (Clostridium pasteurianum) (UniProt P00195); assay: as above
[3] = biological target: ferredoxin PetF from Chlamydomonas reinhardtii, wild type, Alexa Fluor 647-labeled (Chlamydomonas reinhardtii) (UniProt P07839); assay: MST; labeled PetF (200 nM) titrated with unlabeled CrHydA1 (0.003–10 µM) with 2 mM dithionite under anaerobic conditions; read-out: concentration-dependent fluorescence quenching of the Alexa Fluor 647 label; 50 mM TRIS pH 8, 50 mM NaCl, 1 mM MgCl2, 0.05 mg/mL BSA, 0.05% Tween20; Monolith NT.115, 22°C
[4] = biological target: T1, [FeFe]-hydrogenase CpI from Clostridium pasteurianum (Clostridium pasteurianum, UniProt P29166 1-574); assay: MST; anaerobic; reducing conditions (dithionite); ferredoxin labelled with Alexa Fluor 647; settings: both partners purified
T1 construct: [FeFe]-hydrogenase CpI of Clostridium pasteurianum, with H-domain (H-cluster) and F-domain (three [4Fe-4S] clusters, one [2Fe-2S] cluster)
T1 sequence: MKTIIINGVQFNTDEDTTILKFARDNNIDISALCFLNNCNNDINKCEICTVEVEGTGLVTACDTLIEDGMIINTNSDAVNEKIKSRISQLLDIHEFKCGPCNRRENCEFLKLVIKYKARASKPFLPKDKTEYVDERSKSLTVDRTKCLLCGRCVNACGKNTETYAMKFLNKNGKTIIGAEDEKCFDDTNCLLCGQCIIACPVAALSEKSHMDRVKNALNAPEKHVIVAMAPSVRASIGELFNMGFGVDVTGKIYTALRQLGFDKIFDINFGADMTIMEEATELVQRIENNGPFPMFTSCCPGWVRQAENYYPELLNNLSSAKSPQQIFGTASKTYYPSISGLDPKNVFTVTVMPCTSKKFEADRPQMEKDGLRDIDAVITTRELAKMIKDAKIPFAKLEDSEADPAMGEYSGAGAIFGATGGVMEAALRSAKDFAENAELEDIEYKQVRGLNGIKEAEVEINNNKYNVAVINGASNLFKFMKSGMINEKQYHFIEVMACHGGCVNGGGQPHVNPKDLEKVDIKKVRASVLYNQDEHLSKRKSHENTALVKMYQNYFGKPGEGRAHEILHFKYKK

Molecule: [FeFe]-hydrogenase CpI from Clostridium pasteurianum (from UniProt P29166 1-574) (enzyme)
Kd [1]: 11.3 µM

Kd [2]: 2.41 µM
Kd [3]: 1.24 µM
Molecule: [FeFe]-hydrogenase CrHydA1 from Chlamydomonas reinhardtii (enzyme)

Kd [4]: 12.4 ± 0.97 µM
B1: clostridial 2[4Fe-4S] ferredoxin CpFd from Clostridium pasteurianum, wild type (holo) (natural protein)
chain: AYKIADSCVSCGACASECPVNAISQGDSIFVIDADTCIDCGNCANVCPVGAPVQE
modifications: cysteine pairing not given here; also: Alexa Fluor 647 dye label, site not given here, binds two [4Fe-4S] clusters (F and F')
notes: Ferredoxin CpFd of Clostridium pasteurianum, 2[4Fe-4S] type, wild type; Tested reduced (with dithionite) and oxidized (without dithionite); the redox state is told by the assay; also called wild-type CpFd; holo-CpFd; source: E. coli C321.ΔA.opt
